Like-named read-outs stand apart in the source and are kept apart here. Values belong to the molecule of their own block, whether it stands above or below them. Numbered stars: 1 amine (or outer) side, 2 acyl side, 3 side chain; on linkers, the order of the positions; unused ones are H or OH. Side chains are listed from the residue outwards. Ends that are not written are not given here. Peptide text beside a SMILES is read from it. * marks the point of attachment. γGlu = O=C(O)[C@H](CCC(=O)[*:2])N[*:1]; Palmitoyl = CCCCCCCCCCCCCCCC(=O)*
Experiments:
Human GlucR = Human GlucR (Homo sapiens, UniProt P47871); settings: read-out: hGlucR EC50; assay 1; additional peptides (Table 4)
Chain of Human GlucR (P47871 26-477): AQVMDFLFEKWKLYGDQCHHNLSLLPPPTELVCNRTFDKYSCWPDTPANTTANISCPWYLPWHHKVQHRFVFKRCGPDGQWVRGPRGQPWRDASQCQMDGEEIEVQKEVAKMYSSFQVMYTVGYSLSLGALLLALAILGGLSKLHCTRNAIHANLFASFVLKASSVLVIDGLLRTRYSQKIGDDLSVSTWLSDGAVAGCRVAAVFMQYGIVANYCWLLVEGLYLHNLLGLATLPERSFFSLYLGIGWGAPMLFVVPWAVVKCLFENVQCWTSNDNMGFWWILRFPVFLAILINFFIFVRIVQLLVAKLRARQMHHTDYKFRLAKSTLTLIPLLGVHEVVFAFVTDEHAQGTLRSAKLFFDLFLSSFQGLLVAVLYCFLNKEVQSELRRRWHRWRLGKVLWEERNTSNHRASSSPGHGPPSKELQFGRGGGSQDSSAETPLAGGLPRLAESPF

human glucagon receptor [1] = biological target: T1, human glucagon receptor (human, UniProt P47871 26-477); assay: cell-based or functional assay
T1 sequence (P47871 26-477): as above

human GLP-1 receptor [2] = biological target: T2, human GLP-1 receptor (human, UniProt P43220 24-463); assay: cell-based or functional assay
[3] = biological target: T3, human glucose-dependent insulinotropic peptide (gastric inhibitory polypeptide) receptor (human, UniProt P48546 22-466); assay: cell-based or functional assay
T3 sequence (looked up): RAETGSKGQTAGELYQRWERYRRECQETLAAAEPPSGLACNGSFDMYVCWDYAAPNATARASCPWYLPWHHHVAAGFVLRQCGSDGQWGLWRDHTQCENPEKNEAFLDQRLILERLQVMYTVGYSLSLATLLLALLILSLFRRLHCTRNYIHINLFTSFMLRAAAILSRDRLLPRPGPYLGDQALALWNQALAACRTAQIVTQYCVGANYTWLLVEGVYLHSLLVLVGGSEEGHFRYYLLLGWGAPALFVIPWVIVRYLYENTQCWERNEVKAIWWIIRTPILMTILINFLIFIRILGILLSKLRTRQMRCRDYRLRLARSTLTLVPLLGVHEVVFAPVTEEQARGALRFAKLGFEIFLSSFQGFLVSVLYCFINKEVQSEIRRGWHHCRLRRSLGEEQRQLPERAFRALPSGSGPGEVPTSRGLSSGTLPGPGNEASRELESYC

[4] = biological target: T3, human glucose-dependent insulinotropic …; assay: cell-based or functional assay; remark: listed apart in the source
human GLP-1 receptor [5] = biological target: T2, human GLP-1 receptor; assay: cell-based or functional assay; remark: listed apart in the source
mouse GLP-1 receptor = biological target: T4, mouse GLP-1 receptor (mouse, UniProt O35659 22-463); assay: cell-based or functional assay
T4 sequence (looked up): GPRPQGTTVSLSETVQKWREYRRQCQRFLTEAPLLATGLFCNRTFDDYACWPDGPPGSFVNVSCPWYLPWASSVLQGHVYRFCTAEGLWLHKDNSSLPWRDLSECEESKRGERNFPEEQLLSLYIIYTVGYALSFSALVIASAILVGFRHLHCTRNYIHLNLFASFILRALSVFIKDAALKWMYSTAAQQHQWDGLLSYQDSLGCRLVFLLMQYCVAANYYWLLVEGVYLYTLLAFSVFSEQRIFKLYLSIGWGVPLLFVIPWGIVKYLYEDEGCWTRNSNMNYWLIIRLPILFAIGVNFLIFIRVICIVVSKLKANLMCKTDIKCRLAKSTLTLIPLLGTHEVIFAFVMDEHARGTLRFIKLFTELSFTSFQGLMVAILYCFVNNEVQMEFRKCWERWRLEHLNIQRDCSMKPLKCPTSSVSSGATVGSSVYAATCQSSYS

human serum albumin = human serum albumin (Homo sapiens, UniProt P02768); assay: calculated from the variation in cAMP generation with the HSA concentration (assay 2)
Chain of human serum albumin (P02768 25-609 limits assumed): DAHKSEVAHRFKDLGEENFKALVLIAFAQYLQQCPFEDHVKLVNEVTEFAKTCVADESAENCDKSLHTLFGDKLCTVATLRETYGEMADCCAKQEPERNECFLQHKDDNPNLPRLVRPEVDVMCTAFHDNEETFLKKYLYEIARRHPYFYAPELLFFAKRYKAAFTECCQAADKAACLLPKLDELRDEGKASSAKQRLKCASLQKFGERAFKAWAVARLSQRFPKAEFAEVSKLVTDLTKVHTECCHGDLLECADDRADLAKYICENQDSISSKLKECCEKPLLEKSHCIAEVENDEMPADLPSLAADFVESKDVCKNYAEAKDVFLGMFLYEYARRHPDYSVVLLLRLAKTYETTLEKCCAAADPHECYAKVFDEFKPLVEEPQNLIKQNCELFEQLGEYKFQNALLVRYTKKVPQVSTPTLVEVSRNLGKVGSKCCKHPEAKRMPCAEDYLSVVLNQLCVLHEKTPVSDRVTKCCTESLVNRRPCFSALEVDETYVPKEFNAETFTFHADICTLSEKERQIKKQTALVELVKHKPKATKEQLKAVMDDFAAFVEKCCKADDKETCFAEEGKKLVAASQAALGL

human glucagon receptor [6] = biological target: T1, human glucagon receptor; assay: cell-based or functional assay; remark: listed apart in the source
[7] = biological target: T3, human glucose-dependent insulinotropic …; assay: cell-based or functional assay; remark: listed apart in the source

- cAMP EC50 (assay 1) (human glucagon receptor [1]): 17.8 pM
- cAMP EC50 (assay 1) (human GLP-1 receptor [2]): 130 pM
Molecule: HSQGTFTSDYSKK([γGlu-Palmitoyl])LDSERARDFVAWLVAGG-OH [G931]

- cAMP EC50 (assay 1) (human glucagon receptor [1]): 8.9 pM
- cAMP EC50 (assay 1) (human GLP-1 receptor [2]): 12 pM
- cAMP EC50 (assay 1) [3]: 47 nM
Molecule: HSQGTFTSDXSSYLDSRSARDFVAWLEAGG (X10 = K(gE-palm); C-terminal acid) [G973]

- cAMP EC50 (assay 1) [4]: 14 nM
- cAMP EC50 (assay 1) (human GLP-1 receptor [5]): 14 pM
- cAMP EC50 (assay 2, 3.2% mouse serum albumin) (mouse GLP-1 receptor): 130 pM
Molecule: HSQGTFTSDKSSYLDSRRARDFVAWLEAGG (X10 = K(gE-palm); C-terminal amide) [G796]

- cAMP EC50 (assay 1) [4]: 17 nM
- cAMP EC50 (assay 1) (human GLP-1 receptor [5]): 9.07 pM
- free peptide at 4.4% HSA (human serum albumin): 0.48%
Molecule: HSQGTFTSDKSRYLDSRSARDFVAWLEAGG (X10 = K(gE-palm); C-terminal amide) [G849]

- cAMP EC50 (assay 1) (human glucagon receptor [6]): 3.55 pM
- cAMP EC50 (assay 1) (human GLP-1 receptor [5]): 10.6 pM
- cAMP EC50 (assay 1) [7]: 1.72 nM
B2: g322 (peptide)
peptide: HSQGTFTSDYSKYLDSRRAQDFVQWLVAGGKNNRNNIAK(Palmitoyl)-NH2
modifications: N-terminus assumed
SMILES: CCCCCCCCCCCCCCCC(=O)NCCCC[C@H](NC(=O)[C@H](C)NC(=O)[C@@H](NC(=O)[C@H](CC(N)=O)NC(=O)[C@H](CC(N)=O)NC(=O)[C@H](CCCNC(=N)N)NC(=O)[C@H](CC(N)=O)NC(=O)[C@H](CC(N)=O)NC(=O)[C@H](CCCCN)NC(=O)CNC(=O)CNC(=O)[C@H](C)NC(=O)[C@@H](NC(=O)[C@H](CC(C)C)NC(=O)[C@H](Cc1c[nH]c2ccccc12)NC(=O)[C@H](CCC(N)=O)NC(=O)[C@@H](NC(=O)[C@H](Cc1ccccc1)NC(=O)[C@H](CC(=O)O)NC(=O)[C@H](CCC(N)=O)NC(=O)[C@H](C)NC(=O)[C@H](CCCNC(=N)N)NC(=O)[C@H](CCCNC(=N)N)NC(=O)[C@H](CO)NC(=O)[C@H](CC(=O)O)NC(=O)[C@H](CC(C)C)NC(=O)[C@H](Cc1ccc(O)cc1)NC(=O)[C@H](CCCCN)NC(=O)[C@H](CO)NC(=O)[C@H](Cc1ccc(O)cc1)NC(=O)[C@H](CC(=O)O)NC(=O)[C@H](CO)NC(=O)[C@@H](NC(=O)[C@H](Cc1ccccc1)NC(=O)[C@@H](NC(=O)CNC(=O)[C@H](CCC(N)=O)NC(=O)[C@H](CO)NC(=O)[C@@H](N)Cc1c[nH]cn1)[C@@H](C)O)[C@@H](C)O)C(C)C)C(C)C)[C@@H](C)CC)C(N)=O

- cAMP EC50 (assay 2, 3.2% mouse serum albumin) (mouse GLP-1 receptor): 130 pM
Molecule: HSQGTFTSDKSKYLEGQAAKEFIAWLEKGR (X10 = K(gE-palm); C-terminal amide) [G812]

More lines, now with the values behind:

Molecule: CC(C)C[C@H](NC(=O)[C@H](Cc1ccc(O)cc1)NC(=O)[C@H](CCCCN)NC(=O)[C@H](CO)NC(=O)[C@H](Cc1ccc(O)cc1)NC(=O)[C@H](CC(=O)O)NC(=O)[C@H](CO)NC(=O)[C@@H](NC(=O)[C@H](Cc1ccccc1)NC(=O)[C@@H](NC(=O)CNC(=O)[C@H](CCC(N)=O)NC(=O)[C@H](CO)NC(=O)[C@@H](N)Cc1c[nH]cn1)[C@@H](C)O)[C@@H](C)O)C(=O)N[C@@H](CC(=O)O)C(=O)N[C@@H](CO)C(=O)N[C@@H](CCCNC(=N)N)C(=O)N[C@@H](CCCNC(=N)N)C(=O)N[C@@H](C)C(=O)N[C@@H](CCC(N)=O)C(=O)N[C@@H](CC(=O)O)C(=O)N[C@@H](Cc1ccccc1)C(=O)N[C@H](C(=O)N[C@@H](CCC(N)=O)C(=O)N[C@@H](Cc1c[nH]c2ccccc12)C(=O)N[C@@H](CC(C)C)C(=O)N[C@H](C(=O)N[C@@H](C)C(=O)NCC(=O)NCC(=O)N1CCC[C@H]1C(=O)N[C@@H](CO)C(=O)N[C@@H](CO)C(=O)NCC(=O)N[C@@H](C)C(=O)N1CCC[C@H]1C(=O)N1CCC[C@H]1C(=O)N1CCC[C@H]1C(=O)N[C@@H](CO)C(=O)N[C@@H](CCCCN)C(N)=O)C(C)C)C(C)C [g319] (H-HSQGTFTSDYSKYLDSRRAQDFVQWLVAGGPSSGAPPPSK-NH2; N-terminus assumed)
- EC50 (Human GlucR): 0.0104 nM

Molecule: CCCCCCCCCCCCCCCC(=O)N[C@@H](CCC(=O)NCCCC[C@H](NC(=O)[C@H](CO)NC(=O)[C@H](CC(=O)O)NC(=O)[C@H](CC(C)C)NC(=O)[C@H](Cc1ccc(O)cc1)NC(=O)[C@H](CCCCN)NC(=O)[C@H](CO)NC(=O)[C@H](Cc1ccc(O)cc1)NC(=O)[C@H](CC(=O)O)NC(=O)[C@H](CO)NC(=O)[C@@H](NC(=O)[C@H](Cc1ccccc1)NC(=O)[C@@H](NC(=O)CNC(=O)[C@H](CCC(N)=O)NC(=O)CNC(=O)[C@@H](N)Cc1c[nH]cn1)[C@@H](C)O)[C@@H](C)O)C(=O)N[C@@H](CCCNC(=N)N)C(=O)N[C@@H](C)C(=O)N[C@@H](C)C(=O)N[C@@H](CC(=O)O)C(=O)N[C@@H](Cc1ccccc1)C(=O)N[C@H](C(=O)N[C@@H](C)C(=O)N[C@@H](Cc1c[nH]c2ccccc12)C(=O)N[C@@H](CC(C)C)C(=O)N[C@H](C(=O)N[C@@H](C)C(=O)NCC(=O)NCC(N)=O)C(C)C)C(C)C)C(=O)O [g736] (H-HGQGTFTSDYSKYLDSK([γGlu-Palmitoyl])RAADFVAWLVAGG-NH2; N-terminus assumed)
- EC50 (Human GlucR): 0.92 nM

Molecule: HSQGTFTSDK([γGlu-Palmitoyl])SKYLEGQAAKEFIAWLEKGR-OH [G934]
- cAMP EC50 (assay 1) (human glucagon receptor [1]): 6.3 pM
- cAMP EC50 (assay 1) (human GLP-1 receptor [2]): 18 pM
- cAMP EC50 (assay 1) [3]: 3.6 nM

Molecule: HSQGTFTSDYSKYLDSRRAQDFVQWLVAGGKNNRNNIAK-NH2 [g321]
- cAMP EC50 (assay 1) (human glucagon receptor [6]): 27.9 pM
- cAMP EC50 (assay 1) (human GLP-1 receptor [5]): 27.2 pM
- cAMP EC50 (assay 1) [7]: 6.41 nM

B1: g327 (peptide)
peptide: HSQGTFTSDYSKYLDSRRAQDFVQWLVAGGGGGGK([γGlu-Palmitoyl])-NH2
modifications: N-terminus assumed
SMILES: CCCCCCCCCCCCCCCC(=O)N[C@@H](CCC(=O)NCCCC[C@H](NC(=O)CNC(=O)CNC(=O)CNC(=O)CNC(=O)CNC(=O)CNC(=O)[C@H](C)NC(=O)[C@@H](NC(=O)[C@H](CC(C)C)NC(=O)[C@H](Cc1c[nH]c2ccccc12)NC(=O)[C@H](CCC(N)=O)NC(=O)[C@@H](NC(=O)[C@H](Cc1ccccc1)NC(=O)[C@H](CC(=O)O)NC(=O)[C@H](CCC(N)=O)NC(=O)[C@H](C)NC(=O)[C@H](CCCNC(=N)N)NC(=O)[C@H](CCCNC(=N)N)NC(=O)[C@H](CO)NC(=O)[C@H](CC(=O)O)NC(=O)[C@H](CC(C)C)NC(=O)[C@H](Cc1ccc(O)cc1)NC(=O)[C@H](CCCCN)NC(=O)[C@H](CO)NC(=O)[C@H](Cc1ccc(O)cc1)NC(=O)[C@H](CC(=O)O)NC(=O)[C@H](CO)NC(=O)[C@@H](NC(=O)[C@H](Cc1ccccc1)NC(=O)[C@@H](NC(=O)CNC(=O)[C@H](CCC(N)=O)NC(=O)[C@H](CO)NC(=O)[C@@H](N)Cc1c[nH]cn1)[C@@H](C)O)[C@@H](C)O)C(C)C)C(C)C)C(N)=O)C(=O)O
- cAMP EC50 (assay 1) (human glucagon receptor [6]): 2.32 pM
- cAMP EC50 (assay 1) (human GLP-1 receptor [5]): 19.3 pM
- cAMP EC50 (assay 1) [7]: 12.8 nM

— patent US20220098265A1 (MEDIMMUNE LIMITED, priority 2012, published 2022)
